Earlier results on one substance are cited in paper PMC4872106.

In this series the target is M.EcoKI (Escherichia coli) (UniProt P08957). Conditions: cited from earlier work.
Sequence of M.EcoKI (Escherichia coli) (P08957 whole entry, chain 1 of 2): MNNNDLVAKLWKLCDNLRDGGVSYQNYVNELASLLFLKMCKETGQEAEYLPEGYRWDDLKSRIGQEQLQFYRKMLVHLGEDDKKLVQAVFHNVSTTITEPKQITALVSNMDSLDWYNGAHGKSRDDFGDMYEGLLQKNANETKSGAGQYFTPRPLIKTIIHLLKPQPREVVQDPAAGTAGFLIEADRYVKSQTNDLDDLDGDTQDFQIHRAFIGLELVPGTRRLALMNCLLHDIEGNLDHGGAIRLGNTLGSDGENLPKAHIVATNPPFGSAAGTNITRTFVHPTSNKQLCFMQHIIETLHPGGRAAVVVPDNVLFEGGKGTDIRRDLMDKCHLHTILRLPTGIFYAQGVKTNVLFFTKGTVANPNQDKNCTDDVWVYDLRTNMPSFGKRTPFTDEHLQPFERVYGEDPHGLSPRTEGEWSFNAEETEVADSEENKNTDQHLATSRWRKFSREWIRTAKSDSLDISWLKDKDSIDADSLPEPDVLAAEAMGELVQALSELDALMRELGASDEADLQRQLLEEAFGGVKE
Sequence of M.EcoKI (Escherichia coli) (P05719 2-464, chain 2 of 2, further chain): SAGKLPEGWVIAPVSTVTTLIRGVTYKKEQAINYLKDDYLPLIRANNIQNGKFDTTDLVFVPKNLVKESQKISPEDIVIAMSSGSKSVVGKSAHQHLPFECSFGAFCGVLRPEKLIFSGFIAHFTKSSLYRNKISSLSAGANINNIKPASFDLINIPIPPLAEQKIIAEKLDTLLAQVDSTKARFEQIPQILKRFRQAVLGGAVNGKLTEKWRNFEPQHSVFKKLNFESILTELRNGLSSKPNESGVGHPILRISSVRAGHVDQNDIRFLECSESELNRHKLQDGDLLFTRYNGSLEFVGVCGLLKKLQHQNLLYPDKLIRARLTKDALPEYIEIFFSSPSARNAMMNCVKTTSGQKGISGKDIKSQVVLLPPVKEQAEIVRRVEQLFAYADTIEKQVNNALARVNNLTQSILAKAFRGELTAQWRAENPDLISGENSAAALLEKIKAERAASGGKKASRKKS

Sequence of Ocr (P03775 whole entry): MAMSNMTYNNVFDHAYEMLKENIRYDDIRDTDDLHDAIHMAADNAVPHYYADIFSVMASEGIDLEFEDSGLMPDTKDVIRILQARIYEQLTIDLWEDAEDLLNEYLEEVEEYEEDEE

Usually Kd stands for the constant that tells how readily two partners part at equilibrium. Take Ocr (from UniProt P03775): the Kd is 50 pM.
